T1: CitGATA7 (Citrus, UniProt A0ACB8JKI3 1-185)
T1 sequence: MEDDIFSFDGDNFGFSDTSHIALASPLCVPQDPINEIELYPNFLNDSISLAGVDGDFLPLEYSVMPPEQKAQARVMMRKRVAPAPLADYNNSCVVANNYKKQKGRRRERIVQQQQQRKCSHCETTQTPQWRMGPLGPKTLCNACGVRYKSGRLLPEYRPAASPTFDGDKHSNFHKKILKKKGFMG


Legend:
CitGATA7 [1] = biological target: T1, CitGATA7; test: EMSA; attenuated dose-dependently by unlabeled WT probe; LightShift Chemiluminescent EMSA kit (Thermo), manufacturer's instructions; buffer, salt, pH and temperature not stated; conditions: protein: recombinant; tags: His (pET-32a); label: 3'-biotin (both strands); blunt
CitGATA7 [2] = biological target: T1, CitGATA7; test: EMSA; LightShift Chemiluminescent EMSA kit (Thermo), manufacturer's instructions; buffer, salt, pH and temperature not stated; conditions: protein: recombinant; tags: His (pET-32a); label: 3'-biotin (both strands); blunt

Binder | binding result (CitGATA7 [1]) | binding result (CitGATA7 [2])
CitIDH1 promoter probe WT (dsDNA) DNA 1: CATTAAATTCCACATCATCTAATATG DNA 2: CATATTAGATGATGTGGAATTTAATG | binds | 
CitACO3 promoter probe mutant (dsDNA) DNA 1: TCCCATAAAAAACCCCCCTAATAATAAAAG DNA 2: CTTTTATTATTAGGGGGGTTTTTTATGGGA |  | no binding
CitACO3 promoter probe WT (dsDNA) DNA 1: TCCCATAAAAAAAGATCATAATAATAAAAG DNA 2: CTTTTATTATTATGATCTTTTTTTATGGGA | binds | 
CitGS1 promoter probe WT (dsDNA) DNA 1: GCACACCATCTCGATCAGGTGGTAATTTTG DNA 2: CAAAATTACCACCTGATCGAGATGGTGTGC | binds | 
CitIDH1 promoter probe mutant (dsDNA) DNA 1: CATTAAATTCCATTTTTTCTAATATG DNA 2: CATATTAGAAAAAATGGAATTTAATG |  | no binding
CitGS1 promoter probe mutant (dsDNA) DNA 1: GCACACCATCTCAAAAAGGTGGTAATTTTG DNA 2: CAAAATTACCACCTTTTTGAGATGGTGTGC |  | no binding
